Results as given in patent publication US20230051715A1 (MABWELL THERAPEUTICS, published 2023).

T1: cynomolgus monkey C1s (produced in house) (cynomolgus monkey, UniProt P09871 16-685 (human entry), limits assumed)
T1 construct: also called CyC1s
T1 chain: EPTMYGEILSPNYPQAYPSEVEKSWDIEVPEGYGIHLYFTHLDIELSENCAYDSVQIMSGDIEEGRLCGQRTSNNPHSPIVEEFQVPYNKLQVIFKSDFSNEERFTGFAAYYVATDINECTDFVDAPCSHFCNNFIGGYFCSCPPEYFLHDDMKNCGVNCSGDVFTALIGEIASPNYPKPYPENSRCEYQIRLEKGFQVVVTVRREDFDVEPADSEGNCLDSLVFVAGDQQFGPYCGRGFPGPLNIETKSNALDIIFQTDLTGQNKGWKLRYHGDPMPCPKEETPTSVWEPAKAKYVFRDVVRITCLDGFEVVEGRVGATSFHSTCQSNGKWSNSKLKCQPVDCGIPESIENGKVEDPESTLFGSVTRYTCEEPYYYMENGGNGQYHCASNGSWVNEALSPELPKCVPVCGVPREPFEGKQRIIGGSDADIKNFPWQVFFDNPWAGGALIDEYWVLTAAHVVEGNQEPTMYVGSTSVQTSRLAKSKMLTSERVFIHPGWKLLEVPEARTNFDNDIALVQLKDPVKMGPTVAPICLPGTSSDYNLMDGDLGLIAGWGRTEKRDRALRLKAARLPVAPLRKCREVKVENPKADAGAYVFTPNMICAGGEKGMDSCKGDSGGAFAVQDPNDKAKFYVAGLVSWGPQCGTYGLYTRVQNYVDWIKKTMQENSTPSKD

T2: human C1s deletion mutant 3 (NHCΔ33) (human, UniProt P09871 16-404)
T2 construct: C-terminal 6xHis tag; also called human C1s (NHCΔ33); C1s (NHCΔ33)
T2 sequence: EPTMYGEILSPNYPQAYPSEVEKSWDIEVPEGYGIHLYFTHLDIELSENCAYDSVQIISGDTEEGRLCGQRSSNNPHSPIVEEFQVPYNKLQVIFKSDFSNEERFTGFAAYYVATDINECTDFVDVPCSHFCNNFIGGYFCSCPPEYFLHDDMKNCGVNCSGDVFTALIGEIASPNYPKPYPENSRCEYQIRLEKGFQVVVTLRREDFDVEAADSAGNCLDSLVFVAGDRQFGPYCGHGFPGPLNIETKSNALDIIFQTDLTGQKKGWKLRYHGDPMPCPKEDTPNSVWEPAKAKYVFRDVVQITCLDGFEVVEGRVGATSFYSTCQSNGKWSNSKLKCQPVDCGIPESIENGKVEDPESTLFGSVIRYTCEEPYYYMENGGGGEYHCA

T3: human C1s mutant M5 (K336G) (human, UniProt P09871 16-688)
T3 construct: The entry is the mutant itself
T3 sequence: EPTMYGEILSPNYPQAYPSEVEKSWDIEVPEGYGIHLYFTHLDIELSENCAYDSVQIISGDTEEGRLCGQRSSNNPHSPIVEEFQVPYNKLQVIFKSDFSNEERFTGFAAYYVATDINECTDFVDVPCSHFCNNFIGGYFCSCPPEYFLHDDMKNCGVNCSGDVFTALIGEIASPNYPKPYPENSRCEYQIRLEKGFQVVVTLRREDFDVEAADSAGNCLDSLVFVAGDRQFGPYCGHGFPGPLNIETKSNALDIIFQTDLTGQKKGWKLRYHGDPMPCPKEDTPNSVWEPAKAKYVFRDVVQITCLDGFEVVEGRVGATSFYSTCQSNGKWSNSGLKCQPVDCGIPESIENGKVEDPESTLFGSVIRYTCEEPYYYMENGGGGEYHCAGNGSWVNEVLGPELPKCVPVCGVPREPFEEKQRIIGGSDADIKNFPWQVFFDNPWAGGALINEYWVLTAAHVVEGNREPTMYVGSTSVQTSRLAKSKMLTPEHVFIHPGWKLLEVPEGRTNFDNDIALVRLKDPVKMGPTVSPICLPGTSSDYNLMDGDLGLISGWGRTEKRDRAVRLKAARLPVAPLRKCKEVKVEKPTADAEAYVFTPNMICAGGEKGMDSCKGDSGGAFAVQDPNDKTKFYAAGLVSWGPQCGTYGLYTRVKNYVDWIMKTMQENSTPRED


Columns and labels:
[1] = target: T1, cynomolgus monkey C1s (produced in …); assay: BLI (Octet RED96e), antibody on AHC biosensor; C1s Species: Cyno Monkey; R^2 0.9997
Description: At last, analyte was dissociated in 1×KB for 360 sec. Data analysis was done using OCTET® Data Analysis HT Software (Sartorius AG).

[2] = target: T2, human C1s deletion mutant 3 (NHCΔ33); assay: ELISA, C1s fragment coated on plate; hz2-8(H1L2 G80A/T82A), second of the two values
Experimental: (§1) ELISA was carried out by first coating 96-well plates with 200 ng/well of full-length or truncated C1s proteins overnight. The next morning, plates were blocked with SuperBlock T20 blocking buffer (Thermo Scientific 37536) for 1 h with gentle shaking. Then, various concentrations of anti-C1s antibodies diluted in SuperBlock T20 blocking buffer were added to the plates and incubated for 1 h with gentle shaking. Mouse IgG (Sigma-Aldrich 15381) and human IgG1 (BioXCell BP0297) were used as negative controls. The plates were washed before incubating with HRP conjugated secondary antibodies diluted in SuperBlock T20 blocking buffer (goat anti-mouse IgG (H+L) cross-adsorbed secondary antibody HRP (Invitrogen G-21040) or goat anti-human IgG antibody, HRP conjugate (Millipore AP309P)) for 1 h with gentle shaking. At last, the plates were washed and color developed with ELISA liquid HRP substrate (Sigma-Aldrich), followed by stopping the reaction with addition of 1M H₂SO₄ in the same volume as the ELISA liquid substrate. Bound antibody was measured by absorbance at OD₄₅₀ₙₘ.
Binding of various anti-C1s antibodies to human C1s (NHCΔ33) (SEQ ID NO: 111) was carried out by ELISA as described in Example 4, and results are shown in FIG. 6A.

[3] = target: T3, human C1s mutant M5 (K336G); assay: ELISA, plate coated with human C1s mutant M5: K336G, OD450nm; curve still rising at 1000 ng/ml, no upper plateau in the range
Experimental: as §1
Binding of anti-C1s antibodies to mutants M1-M20 of human C1s was measured by ELISA as described in Example 4, and results are shown in FIGS. 6B-6U. […]

Binder | Kd [1] | koff [1] | kon [1] | EC50 [2] | EC50 [3]
Anti-C1s antibody hz2-7(H1L2) (antibody, V domains shown, Humanized, human IgG1 / kappa; also called hz2-7(1L2)) VH: EVQLLESGGGLVQPGGSLRLSCAASGFTFSNYFMNWVRQAPGKGLEWVSEIRLKFTNYATHYADSVKGRFTISRDDSKSTLYLQMNSLRAEDTAVYYCTRDYGSRNGYFDYWGQGTLVTVSS VL: DIVMTQTPLSLPVTPGEPASISCRSSKSLLHSNGNTFLYWFLQKPGQSPQLLIYRMSNLASGVPDRFSGSGSGTDFTLKISRVEAEDVGVYYCMQHLEYPYTFGGGTKLEIKR | 0.94 nM | 0.00023 s⁻¹ | 250000 M⁻¹ s⁻¹ | – | –
Anti-C1s antibody hz2-8 (H1L2 G80A/T82A) (antibody, V domains shown, Humanized variant with G80A and T82A in HC CDR2 (already in the entry), human IgG1 / kappa) VH: QVQLVQSGAEVKKPGASVKVSCKASGFNIKEYYMHWVRQAPEQGLEWMGWIDPENADAIYAQKFQGRVTITADTSTNTAYMELSSLRSEDTAVYYCARSRLFFAYWGQGTLVTVSS VL: DIQMTQSPKSLSASVGDRVTITCRASQDVRTALDWYQQKPGQSPKLLIYSASYRYSGVPSRFSGSGSGTDFTLTISSLQPEDFATYYCQQQYTTPYTFGQGTKLEIKR | – | – | – | 0.015 µg/mL | 0.468 µg/mL
